Columns and labels:
[1] = tested on: T1, EntPNP (PNP from Enterobacter); assay: HPLC phosphorolysis assay, Michaelis-Menten fit; format: biochemical, Enterobacter sp.; conditions: 50 mM KH2PO4, pH 7.5, 25 °C, tested up to 4 mM, no plateau
T1 construct: commercial preparation (Sigma-Aldrich); acts on 6-oxopurine nucleosides only
Description: HPLC phosphorolysis assay, Michaelis-Menten fit on EntPNP (PNP from Enterobacter)

[2] = tested on: T1, EntPNP (PNP from Enterobacter); assay: coupled xanthine oxidase assay, […] nm, Michaelis-Menten fit; format: biochemical, Enterobacter sp.; conditions: 50 mM KH2PO4, pH 7.5, 25 °C; phosphorolysis
[3] = tested on: Nc1ncnc2c1ncn2[C@@H]1O[C@H](CO)[C@@H](O)[C@H]1O; assay: purified protein; conditions: 50 mM KH2PO4, pH 7.5, 25 °C, phosphorolysis
[4] = substrate: O=c1[nH]cnc2c1ncn2[C@@H]1O[C@H](CO)[C@@H](O)[C@@H]1O; assay: HPLC phosphorolysis assay, Michaelis-Menten fit; format: biochemical, Escherichia coli; conditions: 50 mM KH2PO4, pH 7.5, 25 °C, tested up to 4 mM, no plateau
Description: HPLC phosphorolysis assay, Michaelis-Menten fit on EcPNP

purified protein = substrate: OC[C@H]1O[C@@H](n2cnc3c(O)ncnc32)[C@H](O)[C@@H]1O; assay: purified protein; format: biochemical, Escherichia coli; conditions: 50 mM KH2PO4, pH 7.5, 25 °C, phosphorolysis

Work on `O=c1[nH]cnc2c1ncn2[C@@H]1O[C@H](CO)[C@@H](O)[C@@H]1O` [9-(β-D-arabinofuranosyl)hypoxanthine] yielded a Km [1] of 2900 ± 831 µM.

For `O=c1[nH]cnc2c1ncn2[C@@H]1O[C@H](CO)[C@@H](O)[C@H]1O` [inosine], the Km [2] was 107 ± 21 µM.

EcPNP (Escherichia coli K-12) was tested, and the Km [3] was 21 ± 5 µM and the kcat [3] was 137.7 s⁻¹.

B1: EcPNP (Escherichia coli K-12) (protein)
chain: ATPHINAEMGDFADVVLMPGDPLRAKYIAETFLEDAREVNNVRGMLGFTGTYKGRKISVMGHGMGIPSCSIYTKELITDFGVKKIIRVGSCGAVLPHVKLRDVVIGMGACTDSKVNRIRFKDHDFAAIADFDMVRNAVDAAKALGIDARVGNLFSADLFYSPDGEMFDVMEKYGILGVEMEAAGIYGVAAEFGAKALTICTVSDHIRTHEQTTAAERQTTFNDMIKIALESVLLGDKE
notes: recombinant from plasmid pER-EcPNP, host E. coli ER2566
For B1, the Km [4] was 1810 ± 371 µM, the kcat [4] was 0.709 s⁻¹ and the Km (purified protein) was 76 ± 21 µM. For the same molecule, the kcat (purified protein) was 29.2 s⁻¹.
